From patent US20210180049A1 (CHUGAI SEIYAKU KABUSHIKI KAISHA, priority 2013, published 2021)

Target: T1, human IL-6 receptor (hIL-6R) (Homo sapiens, UniProt P08887)
T1 sequence (P08887 20-357): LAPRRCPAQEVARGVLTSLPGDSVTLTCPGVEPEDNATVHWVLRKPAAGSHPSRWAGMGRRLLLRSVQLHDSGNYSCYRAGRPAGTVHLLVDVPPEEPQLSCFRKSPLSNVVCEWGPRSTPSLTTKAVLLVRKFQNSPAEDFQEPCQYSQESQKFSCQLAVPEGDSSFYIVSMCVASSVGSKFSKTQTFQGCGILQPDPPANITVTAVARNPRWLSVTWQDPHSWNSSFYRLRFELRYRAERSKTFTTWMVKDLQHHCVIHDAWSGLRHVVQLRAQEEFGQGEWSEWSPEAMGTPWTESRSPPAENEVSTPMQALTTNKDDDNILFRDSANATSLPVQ
Test: SPR (Biacore T200) of 6RNMSC1-2_F02 with hIL-6R with or without kynurenine or ATP
Format: binding
Conditions: 1 μmol/L hIL-6R
Text: Biacore T200 (GE Healthcare) was used to analyze the interaction of antigen-antibody reaction between 6RNMSC1-2_F02 and human IL-6 receptor (hIL-6R). An appropriate amount of protein A (Invitrogen) was immobilized onto Sensor chip CM5 (GE Healthcare) by the amine coupling method. The antibody of interest was captured onto the sensor chip, and the antigen hIL-6R was allowed to interact. The running buffer used was 20 mmol/L ACES, 150 mmol/L NaCl, 0.05% (w/v) Tween 20, pH 7.4. The interaction with the antigen hIL-6R was measured at 25° C. hIL-6R was diluted with the running buffer, the running buffer containing 100 μmol/L kynurenine, or, as a control, the running buffer containing 10 mmol/L ATP.
Diluted hIL-6R solutions and the running buffer which is the blank were injected at a flow rate of 10 μL/min for one minute and hIL-6R was allowed to interact with 6RNMSC1-2_F02 captured on the sensor chip. Then, the running buffer was run at a flow rate of 10 μL/min for one minute to observe the dissociation of hIL-6R from the antibody. […] The dissociation constant KD (M) of 6RNMSC1-2_F02 for hIL-6R was calculated from the kinetic parameters, the association rate constant ka (1/Ms) and the dissociation rate constant kd (l/s), calculated based on the sensorgrams obtained by the measurements. Each parameter was calculated using Biacore T200 Evaluation Software (GE Healthcare).

B1: 6RNMSC1-2_F02: antibody binding hIL-6R in the presence of kynurenine; heavy chain SEQ ID NO: 32, light chain SEQ ID NO: 33 (antibody, listed as Homo sapiens, V domains shown)
VH: QVQLVQSGAEVKKPGSSVKVSCKASGGTFSSYAISWVRQAPGQGLEWMGGIIPIFGTANYAQKFQGRVTITADESTSTAYMELSSLRSEDTAVYYCARDAPVVARPRGAFDIWGQGTMVTVSS
VL: DIVMTQTPLSSPVTLGQPASISCRSSQSLVHSDGNTYLSWLQQRPGQPPRLLIHEISNRFSGVPDRFSGSGAGTNFTLKISRVEAEDVGVYYCMQATQFPRTFGQGTKVEIK
B1 was tested, and the “hIL-6R binding in the absence of kynurenine” value was “not detected” and the “hIL-6R binding in the presence of kynurenine” value (100 μmol/L kynurenine) was “bound to hIL-6R”.
